T1: FcγRIIa-R131 (CD32, arginine at position 131), on cells (human, UniProt P12318 34-317)
T1 construct: whole, on cells; A database entry may carry H at that site, so the arginine must be set by hand; also called FcγRIIa-R131 allotype; IIA1.6 FcγRIIa-R131 transfectants
T1 sequence (looked up): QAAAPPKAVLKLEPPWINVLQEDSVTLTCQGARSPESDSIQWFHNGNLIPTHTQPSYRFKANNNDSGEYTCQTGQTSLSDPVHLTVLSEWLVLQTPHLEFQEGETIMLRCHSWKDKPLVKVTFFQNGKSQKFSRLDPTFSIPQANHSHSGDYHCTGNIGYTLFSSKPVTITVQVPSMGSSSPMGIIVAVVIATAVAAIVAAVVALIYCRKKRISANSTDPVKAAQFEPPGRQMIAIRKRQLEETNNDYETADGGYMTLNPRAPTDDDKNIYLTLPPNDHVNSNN

T2: CD20 (human, UniProt P11836)
T2 construct: full length, on cells; also called CD20 on cells; Raji cells expressing CD20
T2 sequence (membrane protein on cells, looked up): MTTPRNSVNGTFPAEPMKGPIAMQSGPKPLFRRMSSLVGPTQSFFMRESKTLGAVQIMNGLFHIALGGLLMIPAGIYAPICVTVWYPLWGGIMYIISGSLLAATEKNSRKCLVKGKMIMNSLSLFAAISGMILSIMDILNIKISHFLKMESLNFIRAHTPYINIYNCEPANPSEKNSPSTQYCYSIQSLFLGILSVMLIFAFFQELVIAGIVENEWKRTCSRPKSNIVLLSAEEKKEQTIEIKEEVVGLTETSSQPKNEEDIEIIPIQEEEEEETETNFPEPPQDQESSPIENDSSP


Legend:
FcγRI (CD64), on cells [1] = biological target: T3, FcγRI (CD64), on cells (UniProt P12314 16-374, limits assumed); experiment: cell-based or functional assay
T3 construct: whole, on cells
T3 sequence (P12314 16-374 limits assumed): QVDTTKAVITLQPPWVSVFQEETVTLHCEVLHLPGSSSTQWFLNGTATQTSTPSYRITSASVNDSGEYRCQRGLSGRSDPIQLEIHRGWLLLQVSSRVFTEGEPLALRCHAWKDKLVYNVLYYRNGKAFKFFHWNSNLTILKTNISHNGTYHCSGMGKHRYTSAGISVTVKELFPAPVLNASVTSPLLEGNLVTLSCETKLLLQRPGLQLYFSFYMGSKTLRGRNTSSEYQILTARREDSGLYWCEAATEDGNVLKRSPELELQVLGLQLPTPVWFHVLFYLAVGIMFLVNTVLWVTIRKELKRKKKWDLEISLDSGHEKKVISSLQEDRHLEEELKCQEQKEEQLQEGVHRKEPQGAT

[2] = biological target: T1, FcγRIIa-R131 (CD32, arginine at …); experiment: flow cytometry on transfected cells, mean fluorescence intensity; antibody concentration not given
[3] = biological target: T4, FcαR (CD89), on transfected IIA1.6 cells (UniProt P24071 22-287, limits assumed); experiment: flow cytometry on CD89-transfected cells, mean fluorescence intensity; concentration not given
T4 construct: whole, on cells; also called Fcα receptor; FcαRI
T4 sequence (P24071 22-287 limits assumed): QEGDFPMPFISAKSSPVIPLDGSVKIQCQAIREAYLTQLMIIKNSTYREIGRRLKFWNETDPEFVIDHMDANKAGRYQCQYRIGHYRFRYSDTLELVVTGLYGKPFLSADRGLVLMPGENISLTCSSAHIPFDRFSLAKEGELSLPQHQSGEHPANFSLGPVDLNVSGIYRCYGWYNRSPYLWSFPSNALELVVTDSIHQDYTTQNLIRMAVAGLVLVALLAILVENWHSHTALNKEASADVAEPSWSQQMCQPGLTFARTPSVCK

[4] = biological target: T5, FcγRIIIa (CD16), on cells (UniProt P08637 17-254, limits assumed); experiment: flow cytometry on CD16A-expressing cells, mean fluorescence intensity; concentration not given
T5 construct: whole, on cells; also called CD16A
T5 sequence (P08637 17-254 limits assumed): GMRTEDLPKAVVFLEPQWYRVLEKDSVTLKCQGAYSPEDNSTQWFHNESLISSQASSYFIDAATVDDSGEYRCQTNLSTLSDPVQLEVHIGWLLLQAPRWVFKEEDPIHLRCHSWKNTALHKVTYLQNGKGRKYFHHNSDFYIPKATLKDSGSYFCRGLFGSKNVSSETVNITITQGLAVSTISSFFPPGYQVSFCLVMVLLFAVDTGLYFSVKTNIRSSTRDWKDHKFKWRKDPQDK

CD20 = biological target: T2, CD20; experiment: flow cytometry on CD20-expressing cells, mean fluorescence intensity; concentration not given
FcγRI (CD64), on cells [5] = biological target: T3, FcγRI (CD64), on cells; experiment: flow cytometry on CD64-expressing cells, mean fluorescence intensity; concentration not given

| reduction of FcγRI membrane expression (FcγRI (CD64), on cells [1]) | binding result [2] | binding result [3] | binding result [4] | binding result (CD20) | binding result (FcγRI (CD64), on cells [5]) | Molecule |
| --- | --- | --- | --- | --- | --- | --- |
| 60% | – | – | – | – | – | humanized CD64 mAb H22 (antibody) |
| – | binds | no binding | no binding | no binding | no binding | human monoclonal antibody MDE-8 (whole IgG) (antibody, V domains shown, Hybridoma-derived fully human IgG, kappa from HuMab HCo7 mice; a human IgG1 mAb served as its isotype control; also called HuMAb MDE-8; MDE-8 IgG) VH: QVHLVESGGGVVQPGRSLRLSCAASGFTFSSYGMHWVRQAPGKGLEWVAVIWYDGSNYYYTDSVKGRFTISRDNSKNTLYLQMNSLRAEDTAVYYCARDLGAAASDYWGQGTLVTVSS VL: AIQLTQSPSSLSASVGDRVTITCRASQGINSALAWYQQKPGKAPKLLIYDASSLESGVPSRFSGSGSGTDFTLTISSLQPEDFATYYCQQFNSYPHTFGQGTKLEIK |
